We go through one substance from EP4674954A1.

Test [1] deals with mbIL-7-3 (CD52 signal peptide-IL-7-linker 4-point-mutated BCMA extracellular domain-CD52). The experiment in a line: flow cytometry, share of stained cells; TIL sample T005-3 electroporated with mbIL-7-3. In general terms: Flow cytometry measures light scatter and fluorescence of single cells or particles in a stream.
The target is the same in test [2]. The experiment in a line: flow cytometry, share of stained cells; TIL sample T009-3 electroporated with mbIL-7-3.
The target of test [3] is mbIL-7-7 (CD52 signal peptide-IL-7-linker 2-BCMA extracellular domain-CD8 transmembrane domain). Kind of test: flow cytometry, share of stained cells; TIL sample T003-7 electroporated with mbIL-7-7.
Test [4] deals with mbIL-7-9 (CD52 signal peptide-IL-7-linker 5-truncated point-mutated BCMA extracellular domain-CD52). Kind of test: flow cytometry, share of stained cells; TIL sample T012-9 electroporated with mbIL-7-9.
The target in test [5] is mbIL-7-4 (CD52 signal peptide-IL-7-linker 5-truncated point-mutated BCMA extracellular domain-CD8 extracellular hinge region-CD52). Kind of test: flow cytometry, share of stained cells; TIL sample T010-4 electroporated with mbIL-7-4.
Test [6] deals with mbIL-7-2 (CD52 signal peptide-IL-7-linker 2-BCMA extracellular domain-CD52). The experiment in a line: flow cytometry, share of stained cells; TIL sample T003-2 electroporated with mbIL-7-2.
The target of test [7] is mbIL-7-1 (CD52 signal peptide-IL-7-linker 1-BCMA extracellular domain-CD52). Kind of test: flow cytometry, share of stained cells; TIL sample T001-1 electroporated with mbIL-7-1.
In test [8] the target is mbIL-7-8 (IL-7 signal peptide-IL-7-linker 2-truncated BCMA extracellular domain-CD52). Kind of test: flow cytometry, share of stained cells; TIL sample T008-8 electroporated with mbIL-7-8.
The target in test [9] is mbIL-7-1 (CD52 signal peptide-IL-7-linker 1-BCMA extracellular domain-CD52). Kind of test: flow cytometry, share of stained cells; TIL sample T004-1 electroporated with mbIL-7-1.
Test [10] concerns the target mbIL-7-9 (CD52 signal peptide-IL-7-linker 5-truncated point-mutated BCMA extracellular domain-CD52). The experiment in a line: flow cytometry, share of stained cells; TIL sample T014-9 electroporated with mbIL-7-9.
For test [11], the target named is mbIL-7-6 (CD52 signal peptide-IL-7-linker 3-BCMA extracellular domain-CD52). The experiment in a line: flow cytometry, share of stained cells; TIL sample T007-6 electroporated with mbIL-7-6.
For test [12], the target named is mbIL-7-2 (CD52 signal peptide-IL-7-linker 2-BCMA extracellular domain-CD52). Kind of test: flow cytometry, share of stained cells; TIL sample T002-2 electroporated with mbIL-7-2.
Test [13] addresses mbIL-7-5 (CD52 signal peptide-IL-7-point mutation BCMA extracellular domain-linker 4-CD52). Kind of test: flow cytometry, share of stained cells; TIL sample T006-5 electroporated with mbIL-7-5.
Test [14] addresses mbIL-7-9 (CD52 signal peptide-IL-7-linker 5-truncated point-mutated BCMA extracellular domain-CD52). Kind of test: flow cytometry, share of stained cells; TIL sample T013-9 electroporated with mbIL-7-9.
For test [15] the target is unchanged. Kind of test: flow cytometry, share of stained cells; TIL sample T011-9 electroporated with mbIL-7-9.

Sequence of mbIL-7-9 (CD52 signal peptide-IL-7-linker 5-truncated point-mutated BCMA extracellular domain-CD52) (chain, as listed by the source limits assumed, change not shown): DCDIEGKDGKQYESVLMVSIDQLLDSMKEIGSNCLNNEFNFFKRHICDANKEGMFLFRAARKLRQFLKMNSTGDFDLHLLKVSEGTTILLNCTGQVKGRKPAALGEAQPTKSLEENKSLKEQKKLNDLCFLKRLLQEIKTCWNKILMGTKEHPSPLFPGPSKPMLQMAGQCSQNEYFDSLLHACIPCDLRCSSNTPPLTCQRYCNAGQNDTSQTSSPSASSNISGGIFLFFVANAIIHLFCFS
Sequence of mbIL-7-1 (CD52 signal peptide-IL-7-linker 1-BCMA extracellular domain-CD52) (chain, as listed by the source limits assumed): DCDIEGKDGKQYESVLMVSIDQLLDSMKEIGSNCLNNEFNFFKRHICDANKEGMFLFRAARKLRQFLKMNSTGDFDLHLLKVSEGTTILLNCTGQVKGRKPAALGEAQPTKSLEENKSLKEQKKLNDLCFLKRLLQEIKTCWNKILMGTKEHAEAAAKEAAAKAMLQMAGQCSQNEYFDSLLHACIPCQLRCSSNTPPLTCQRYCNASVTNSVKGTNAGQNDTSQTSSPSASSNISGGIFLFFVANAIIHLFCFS
Sequence of mbIL-7-2 (CD52 signal peptide-IL-7-linker 2-BCMA extracellular domain-CD52) (chain, as listed by the source limits assumed): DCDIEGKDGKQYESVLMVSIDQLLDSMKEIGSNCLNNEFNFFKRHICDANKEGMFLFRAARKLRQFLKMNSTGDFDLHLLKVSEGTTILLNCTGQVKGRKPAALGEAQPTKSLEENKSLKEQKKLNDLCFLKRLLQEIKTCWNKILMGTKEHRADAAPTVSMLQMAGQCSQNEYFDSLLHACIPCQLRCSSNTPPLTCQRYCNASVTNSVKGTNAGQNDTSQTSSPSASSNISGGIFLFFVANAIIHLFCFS
Sequence of mbIL-7-3 (CD52 signal peptide-IL-7-linker 4-point-mutated BCMA extracellular domain-CD52) (chain, as listed by the source limits assumed, change not shown): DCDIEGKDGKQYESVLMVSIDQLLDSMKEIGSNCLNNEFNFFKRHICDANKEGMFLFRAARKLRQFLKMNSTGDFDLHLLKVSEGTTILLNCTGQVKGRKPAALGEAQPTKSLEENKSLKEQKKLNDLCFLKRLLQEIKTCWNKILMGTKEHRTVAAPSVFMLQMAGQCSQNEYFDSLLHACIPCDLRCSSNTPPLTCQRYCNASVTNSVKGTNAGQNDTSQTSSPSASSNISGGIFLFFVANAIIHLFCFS
Sequence of mbIL-7-6 (CD52 signal peptide-IL-7-linker 3-BCMA extracellular domain-CD52) (chain, as listed by the source limits assumed): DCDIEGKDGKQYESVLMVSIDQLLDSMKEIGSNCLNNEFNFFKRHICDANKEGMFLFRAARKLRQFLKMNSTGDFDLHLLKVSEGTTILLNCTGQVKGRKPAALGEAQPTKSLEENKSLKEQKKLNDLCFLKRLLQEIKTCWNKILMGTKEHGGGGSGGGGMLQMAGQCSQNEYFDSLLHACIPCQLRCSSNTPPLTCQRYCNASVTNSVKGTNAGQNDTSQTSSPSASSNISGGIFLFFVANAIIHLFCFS
Sequence of mbIL-7-5 (CD52 signal peptide-IL-7-point mutation BCMA extracellular domain-linker 4-CD52) (chain, as listed by the source limits assumed, change not shown): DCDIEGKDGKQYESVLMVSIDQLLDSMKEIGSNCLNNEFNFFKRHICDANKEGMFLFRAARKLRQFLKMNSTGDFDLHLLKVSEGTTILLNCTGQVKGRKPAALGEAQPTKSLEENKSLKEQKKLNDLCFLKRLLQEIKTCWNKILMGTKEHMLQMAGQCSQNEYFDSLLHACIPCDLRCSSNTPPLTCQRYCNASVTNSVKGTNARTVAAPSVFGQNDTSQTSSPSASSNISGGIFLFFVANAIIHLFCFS
Sequence of mbIL-7-8 (IL-7 signal peptide-IL-7-linker 2-truncated BCMA extracellular domain-CD52) (chain, as listed by the source limits assumed): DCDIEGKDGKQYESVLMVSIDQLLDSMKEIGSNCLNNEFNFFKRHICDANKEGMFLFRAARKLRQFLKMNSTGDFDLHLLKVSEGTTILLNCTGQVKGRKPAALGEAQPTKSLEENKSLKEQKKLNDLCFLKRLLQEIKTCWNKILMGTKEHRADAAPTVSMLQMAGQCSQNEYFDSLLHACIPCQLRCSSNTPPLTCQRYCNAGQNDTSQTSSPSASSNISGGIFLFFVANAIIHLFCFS
Sequence of mbIL-7-4 (CD52 signal peptide-IL-7-linker 5-truncated point-mutated BCMA extracellular domain-CD8 extracellular hinge region-CD52) (chain, as listed by the source limits assumed, change not shown): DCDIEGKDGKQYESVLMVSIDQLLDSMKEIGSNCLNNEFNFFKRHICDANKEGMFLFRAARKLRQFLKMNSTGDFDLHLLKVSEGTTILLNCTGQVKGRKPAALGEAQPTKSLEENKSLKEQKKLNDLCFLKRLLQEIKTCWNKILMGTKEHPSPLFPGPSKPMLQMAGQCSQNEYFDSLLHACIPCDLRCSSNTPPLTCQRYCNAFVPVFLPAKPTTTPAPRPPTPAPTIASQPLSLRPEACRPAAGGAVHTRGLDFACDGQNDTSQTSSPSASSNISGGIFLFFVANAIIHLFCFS
Sequence of mbIL-7-7 (CD52 signal peptide-IL-7-linker 2-BCMA extracellular domain-CD8 transmembrane domain) (chain, as listed by the source limits assumed): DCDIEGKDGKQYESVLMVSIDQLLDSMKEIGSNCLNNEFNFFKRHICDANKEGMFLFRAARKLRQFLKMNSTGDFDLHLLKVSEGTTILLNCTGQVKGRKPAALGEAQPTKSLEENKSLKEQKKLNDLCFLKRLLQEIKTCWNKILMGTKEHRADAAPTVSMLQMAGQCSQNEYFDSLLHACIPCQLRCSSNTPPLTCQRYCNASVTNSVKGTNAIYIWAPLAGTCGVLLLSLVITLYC

As to “BCMA flow antibody (purchased from Biolegend, catalog number 357504)”, the Positive rate (%) in test [1] is 54.1%; in test [2], 52%; in [3], 15.1%; in test [4] it was 50.1%; in test [5], 43.8%; in test [6], 51.2%. Also, the Positive rate (%) in test [7] is 49.3%; in test [8], 42.5%; in [9] it was 40.2%; in test [10], 41.1%; in test [11], 12.3%; in [12] it was 45.4%. Moreover, the figures for the Positive rate (%) in [13], in test [14] and in test [15] were 44.7%, 45.9% and 47.6%, respectively.
